Values quoted from earlier work, collected in publication PMC2904412.

Biological target: thrombomodulin (Homo sapiens) (UniProt P07204)

Kd: < 1 nM
Substance: thrombin (from UniProt P00734)
